For test [1], the target named is biotin-labeled RSV-IQN57 (Respiratory Syncytial Virus (F1 part)). The test is described as follows: time-resolved FRET competition, IQN57-APC/C45-Eu assay; competitor C45-Eu.
Test [2] addresses biotin-labeled RSV-IQN51 (Respiratory Syncytial Virus (F1 part)). The test is described as follows: time-resolved FRET competition, IQN51-APC/C39-Eu assay; competitor C39-Eu.

As a reminder, the IC50 is the concentration that inhibits the measured activity by half. High values mean a need for much substance, low ones inhibition by little substance.

For the substance HIV-C34 (peptide), the IC50 in test [1] and in test [2] was above 10 µM throughout.

In the case of HIV-T20 (peptide), the IC50 in test [1] and in test [2] was above 10 µM throughout.

The values above are taken from US20100035363A1.
